Measurements reported in article PMC2386288, “Kinetics and Ligand-Binding Preferences of Mycobacterium tuberculosis Thymidylate Synthases, ThyA and ThyX” (PLoS ONE, 2008).

Biological target: the molecule itself
Experiment: SEC

B1: Histidine-tagged M. tuberculosis ThyA (thymidylate synthase) (enzyme)
chain: MSIVTPYEDLLRFVLETGTPKSDRTGTGTRSLFGQQMRYDLSAGFPLLTTKKVHFKSVAYELLWFLRGDSNIGWLHEHGVTIWDEWASDTGELGPIYGVQWRSWPAPSGEHIDQISAALDLLRTDPDSRRIIVSAWNVGEIERMALPPCHAFFQFYVADGRLSCQLYQRSADLFLGVPFNIASYALLTHMMAAQAGLSVGEFIWTGGDCHIYDNHVEQVRLQLSREPRPYPKLLLADRDSIFEYTYEDIVVKNYDPHPAIKAPVAV
notes: also called conventional thymidylate synthase
stoichiometry N: 2
